The record followed here is paper PMC7261175, “A splice site-sensing conformational switch in U2AF2 is modulated by U2AF1 and its recurrent myelodysplasia-associated mutation” (Nucleic Acids Research, 2019).

Data set [1] concerns the target T1, His6SumoMBP-U2AF1 S34F;U2AF2 Cy3/Cy5 (human;human, UniProt Q01081;P26368-2 1-188;85-342, S34F;C67S|A181C;C305A;Q324C). Briefly: smFRET; RNA tethered; 25% closed; Anisotropy: 150 mM NaCl, 25 mM HEPES pH 6.8, 0.5 mM TCEP, 3% glycerol, 20 uM ZnCl2, 0.2 U/ul SUPERase-In; smFRET: 25 mM HEPES pH 7.0, 150 mM KCl, 0.01% octaethylene glycol monododecyl ether, 0.2 mM TCEP, 6 mM BME, 1.5 mM Trolox, oxygen scavenger, room temperature, excess U2AF1 (1000 nM) with heterodimer. To be noted: protein: recombinant;recombinant; tags: N-terminal His6-SUMO-MBP with AAA linker; C-terminal extra Ala;GST cleaved; Cy3/Cy5 on C181 and C324; copies: 1;1; label: biotin on annealed DNA.

For data set [2], the target named is T2, His6SumoMBP-U2AF1;U2AF2 Cy3/Cy5 (human;human, UniProt Q01081;P26368-2 1-188;85-342, C67S|A181C;C305A;Q324C). Briefly: smFRET; RNA tethered; open 0.4 FRET; Anisotropy: 150 mM NaCl, 25 mM HEPES pH 6.8, 0.5 mM TCEP, 3% glycerol, 20 uM ZnCl2, 0.2 U/ul SUPERase-In; smFRET: 25 mM HEPES pH 7.0, 150 mM KCl, 0.01% octaethylene glycol monododecyl ether, 0.2 mM TCEP, 6 mM BME, 1.5 mM Trolox, oxygen scavenger, room temperature, excess U2AF1 (1000 nM) with heterodimer. To be noted: protein: recombinant;recombinant; tags: N-terminal His6-SUMO-MBP with AAA linker; C-terminal extra Ala;GST cleaved; Cy3/Cy5 on C181 and C324; copies: 1;1; label: biotin on annealed DNA.

In data set [3] the target is His6SumoMBP-U2AF1;U2AF2 Cy3/Cy5 D215R/G319R (human;human, UniProt Q01081;P26368-2 1-188;85-342, C67S|A181C;D215R;C305A;G319R;Q324C). Briefly: smFRET; RNA tethered; about half closed; Anisotropy: 150 mM NaCl, 25 mM HEPES pH 6.8, 0.5 mM TCEP, 3% glycerol, 20 uM ZnCl2, 0.2 U/ul SUPERase-In; smFRET: 25 mM HEPES pH 7.0, 150 mM KCl, 0.01% octaethylene glycol monododecyl ether, 0.2 mM TCEP, 6 mM BME, 1.5 mM Trolox, oxygen scavenger, room temperature, excess U2AF1 (1000 nM) with heterodimer. To be noted: protein: recombinant;recombinant; tags: N-terminal His6-SUMO-MBP with AAA linker; C-terminal extra Ala;GST cleaved; Cy3/Cy5 on C181 and C324; copies: 1;1; label: biotin on annealed DNA.

For data set [4], the target named is U2AF2 Cy3/Cy5 isolated subunit (human, UniProt P26368-2 113-342, A181C;C305A;Q324C). Kind of data set: smFRET; RNA tethered; preferentially open; Anisotropy: 150 mM NaCl, 25 mM HEPES pH 6.8, 0.5 mM TCEP, 3% glycerol, 20 uM ZnCl2, 0.2 U/ul SUPERase-In; smFRET: 25 mM HEPES pH 7.0, 150 mM KCl, 0.01% octaethylene glycol monododecyl ether, 0.2 mM TCEP, 6 mM BME, 1.5 mM Trolox, oxygen scavenger, room temperature, excess U2AF1 (1000 nM) with heterodimer. To be noted: protein: recombinant, tags: His6 and T7 tags, label: biotin on annealed DNA.

Data set [5] addresses T2, His6SumoMBP-U2AF1;U2AF2 Cy3/Cy5. Briefly: smFRET; RNA tethered; more open than DEK(-3U); Anisotropy: 150 mM NaCl, 25 mM HEPES pH 6.8, 0.5 mM TCEP, 3% glycerol, 20 uM ZnCl2, 0.2 U/ul SUPERase-In; smFRET: 25 mM HEPES pH 7.0, 150 mM KCl, 0.01% octaethylene glycol monododecyl ether, 0.2 mM TCEP, 6 mM BME, 1.5 mM Trolox, oxygen scavenger, room temperature, excess U2AF1 (1000 nM) with heterodimer. To be noted: protein: recombinant;recombinant; tags: N-terminal His6-SUMO-MBP with AAA linker; C-terminal extra Ala;GST cleaved; Cy3/Cy5 on C181 and C324; copies: 1;1; label: biotin on annealed DNA.

In data set [6] the target is T1, His6SumoMBP-U2AF1 S34F;U2AF2 Cy3/Cy5. Briefly: smFRET; RNA tethered; slightly more open than DEK(-3U); Anisotropy: 150 mM NaCl, 25 mM HEPES pH 6.8, 0.5 mM TCEP, 3% glycerol, 20 uM ZnCl2, 0.2 U/ul SUPERase-In; smFRET: 25 mM HEPES pH 7.0, 150 mM KCl, 0.01% octaethylene glycol monododecyl ether, 0.2 mM TCEP, 6 mM BME, 1.5 mM Trolox, oxygen scavenger, room temperature, excess U2AF1 (1000 nM) with heterodimer. To be noted: protein: recombinant;recombinant; tags: N-terminal His6-SUMO-MBP with AAA linker; C-terminal extra Ala;GST cleaved; Cy3/Cy5 on C181 and C324; copies: 1;1; label: biotin on annealed DNA.

A further data set has as its target His6SumoMBP-U2AF1;U2AF2 (human;human, UniProt Q01081;P26368-2 1-188;85-471, C67S|). Kind of data set: fluorescence anisotropy; Anisotropy: 150 mM NaCl, 25 mM HEPES pH 6.8, 0.5 mM TCEP, 3% glycerol, 20 uM ZnCl2, 0.2 U/ul SUPERase-In; smFRET: 25 mM HEPES pH 7.0, 150 mM KCl, 0.01% octaethylene glycol monododecyl ether, 0.2 mM TCEP, 6 mM BME, 1.5 mM Trolox, oxygen scavenger, room temperature, excess U2AF1 (1000 nM) with heterodimer. Particulars: protein: recombinant;recombinant; tags: N-terminal His6-SUMO-MBP with AAA linker; C-terminal extra Ala;GST cleaved by PreScission; copies: 1;1; label: 5'-fluorescein.

In the next data set the target is U2AF1 UHM (dZn);U2AF2 (human;human, UniProt Q01081;P26368-2 43-146;85-471, C67S|). Kind of data set: fluorescence anisotropy; Kd shown in figure only; Anisotropy: 150 mM NaCl, 25 mM HEPES pH 6.8, 0.5 mM TCEP, 3% glycerol, 20 uM ZnCl2, 0.2 U/ul SUPERase-In; smFRET: 25 mM HEPES pH 7.0, 150 mM KCl, 0.01% octaethylene glycol monododecyl ether, 0.2 mM TCEP, 6 mM BME, 1.5 mM Trolox, oxygen scavenger, room temperature, excess U2AF1 (1000 nM) with heterodimer. To be noted: protein: recombinant;recombinant; tags: GST cleaved by TEV;GST cleaved by PreScission; copies: 1;1; label: 5'-fluorescein. (In fluorescence polarisation assays a small probe gives low polarisation when free and higher when bound to something large.)

A further data set deals with U2AF1 untagged;U2AF2 (human;human, UniProt Q01081;P26368-2 1-193;85-471, |). Kind of data set: fluorescence anisotropy; Kd in figure only; tag has no significant influence; Anisotropy: 150 mM NaCl, 25 mM HEPES pH 6.8, 0.5 mM TCEP, 3% glycerol, 20 uM ZnCl2, 0.2 U/ul SUPERase-In; smFRET: 25 mM HEPES pH 7.0, 150 mM KCl, 0.01% octaethylene glycol monododecyl ether, 0.2 mM TCEP, 6 mM BME, 1.5 mM Trolox, oxygen scavenger, room temperature, excess U2AF1 (1000 nM) with heterodimer. Particulars: protein: recombinant;recombinant; tags: MBP cleaved by TEV; GSGGGGS linker remains;GST cleaved by PreScission; copies: 1;1; label: 5'-fluorescein.
Chain of U2AF1 untagged;U2AF2 (Q01081 1-193, chain 1 of 2): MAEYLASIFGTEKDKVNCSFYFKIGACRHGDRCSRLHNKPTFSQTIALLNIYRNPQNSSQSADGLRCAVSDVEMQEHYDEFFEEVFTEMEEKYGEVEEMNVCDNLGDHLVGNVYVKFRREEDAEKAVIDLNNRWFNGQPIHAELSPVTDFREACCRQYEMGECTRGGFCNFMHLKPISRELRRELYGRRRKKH
Chain of U2AF1 untagged;U2AF2 (P26368 other isoform, or with tags, fused parts or gaps |, chain 2 of 2): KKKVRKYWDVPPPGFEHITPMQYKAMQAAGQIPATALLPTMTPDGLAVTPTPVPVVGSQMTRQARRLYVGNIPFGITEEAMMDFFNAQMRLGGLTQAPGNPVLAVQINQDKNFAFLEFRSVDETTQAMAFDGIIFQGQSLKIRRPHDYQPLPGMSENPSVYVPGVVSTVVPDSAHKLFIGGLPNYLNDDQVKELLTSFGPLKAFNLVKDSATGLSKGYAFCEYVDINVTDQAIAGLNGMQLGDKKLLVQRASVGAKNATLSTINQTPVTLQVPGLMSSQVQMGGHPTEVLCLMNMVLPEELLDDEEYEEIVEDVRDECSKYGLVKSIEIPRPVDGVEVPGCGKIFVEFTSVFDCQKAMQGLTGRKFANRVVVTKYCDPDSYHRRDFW

T2 sequence (Q01081 1-188 C67S, chain 1 of 2): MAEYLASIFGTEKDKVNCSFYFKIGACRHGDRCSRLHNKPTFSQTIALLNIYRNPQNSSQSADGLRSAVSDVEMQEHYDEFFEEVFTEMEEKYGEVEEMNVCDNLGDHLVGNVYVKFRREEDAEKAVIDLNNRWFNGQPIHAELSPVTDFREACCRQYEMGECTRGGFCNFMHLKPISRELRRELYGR
T2 sequence (P26368 85-342 A181C/C305A/Q324C, chain 2 of 2): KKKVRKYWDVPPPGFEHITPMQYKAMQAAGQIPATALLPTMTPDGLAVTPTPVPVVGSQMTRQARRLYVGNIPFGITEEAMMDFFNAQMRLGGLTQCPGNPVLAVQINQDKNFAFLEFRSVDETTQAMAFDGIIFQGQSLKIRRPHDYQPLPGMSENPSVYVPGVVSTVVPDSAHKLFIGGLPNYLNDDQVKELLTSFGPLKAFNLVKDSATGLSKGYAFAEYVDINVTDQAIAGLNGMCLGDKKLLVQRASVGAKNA
T1 sequence (Q01081 1-188 S34F/C67S, chain 1 of 2): as the sequence (Q01081 1-188 C67S, chain 1 of 2) above, with S34F counted along it
T1 sequence (P26368 85-342 A181C/C305A/Q324C, chain 2 of 2): as the sequence (P26368 85-342 A181C/C305A/Q324C, chain 2 of 2) above
Chain of His6SumoMBP-U2AF1;U2AF2 (Q01081 1-188 C67S, chain 1 of 2): as the sequence (Q01081 1-188 C67S, chain 1 of 2) above
Chain of His6SumoMBP-U2AF1;U2AF2 (P26368 other isoform, or with tags, fused parts or gaps C67S|, chain 2 of 2): as the sequence (P26368 other isoform, or with tags, fused parts or gaps |, chain 2 of 2) above
Chain of His6SumoMBP-U2AF1;U2AF2 Cy3/Cy5 D215R/G319R (Q01081 1-188 C67S, chain 1 of 2): as the sequence (Q01081 1-188 C67S, chain 1 of 2) above
Chain of His6SumoMBP-U2AF1;U2AF2 Cy3/Cy5 D215R/G319R (P26368 85-342 A181C/D215R/C305A/G319R/Q324C, chain 2 of 2): as the sequence (P26368 85-342 A181C/C305A/Q324C, chain 2 of 2) above, with D131R, G235R counted along it
Chain of U2AF1 UHM (dZn);U2AF2 (Q01081 43-146 C67S, chain 1 of 2): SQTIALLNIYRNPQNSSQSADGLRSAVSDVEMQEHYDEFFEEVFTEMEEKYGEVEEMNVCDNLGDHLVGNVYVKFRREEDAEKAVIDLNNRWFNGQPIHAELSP
Chain of U2AF1 UHM (dZn);U2AF2 (P26368 other isoform, or with tags, fused parts or gaps C67S|, chain 2 of 2): as the sequence (P26368 other isoform, or with tags, fused parts or gaps |, chain 2 of 2) above
Chain of U2AF2 Cy3/Cy5 isolated subunit (P26368 113-342 A181C/C305A/Q324C): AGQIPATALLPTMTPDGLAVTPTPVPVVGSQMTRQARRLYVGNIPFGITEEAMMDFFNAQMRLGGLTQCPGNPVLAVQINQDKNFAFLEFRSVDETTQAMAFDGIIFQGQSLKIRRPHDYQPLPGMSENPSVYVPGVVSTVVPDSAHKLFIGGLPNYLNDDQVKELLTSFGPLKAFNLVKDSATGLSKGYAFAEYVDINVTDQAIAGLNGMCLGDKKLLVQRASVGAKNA

Take UCCCUUUUUUUUCCACAGCUCGCGGU (ssRNA, 3' PEG18-DNA conjugate) [AdML tethered]: the binding result in data set [1], in data set [2] and in [3] was “binds” throughout.

With UACUAAAUUAAUUUCCAGAAAAGAGU (ssRNA, 3' PEG18-DNA conjugate) [DEK(-3C)], the binding result in data set [4], in data set [5] and in data set [6] was “binds” throughout.

Consider CUGUCCCUUUUUUUUCACAGCUCGCGGUUGAG (ssRNA) [Fl-AdML], for which, in the data set with His6SumoMBP-U2AF1;U2AF2, the Kd amounted to 120 ± 15 nM. The “fold weaker binding affinity (Kd ratio)” value in the data set with U2AF1 UHM (dZn);U2AF2 was 35 fold weaker than heterodimer with zinc knuckles. Also, in the data set with U2AF1 untagged;U2AF2, the binding result is “binds”.

The term Kd denotes a measure of binding affinity in units of concentration.
